This note sets out measurements from KR20230086338A (dated 2023).

The assay deals with T1, 재조합 인간 MUC1-C 항원 (MUC1-C ECD) (human, UniProt P15941 1098-1158).
T1 construct: also called 재조합 MUC1-C 단백질; 재조합 hMUC1-항원
T1 sequence: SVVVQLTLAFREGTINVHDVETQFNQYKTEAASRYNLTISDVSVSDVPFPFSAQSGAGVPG
As to the kind of experiment: BLI (Octet RED 96); MUC1-C antigen immobilised on AR2G sensor at 5 μg/mL, antibody 0.626-20 nM, 1:2 binding model. For orientation: In BLI a coated tip is dipped into the sample, and binding shifts an interference pattern.

B1: KC-001 항체 (인간 MUC1-C 항체 KC-001) (antibody, V domains shown)
VH: QVQLVESGGGLVQPGGSLRLSCAASGFTFSNYGMSWVRQAPGKGLEWVSSISNGGGSTSYADSVKGRFTISRDNSKNTLYLQMNSLRAEDTAVYYCAGWGIRGVTRPYYYYGMDVWGQGTTITVSS
VL: DIVMTQTPLSLSVTPGQPASISCKSSQSLLHSDRKTYLYWYLQKPGQSPQLLIYEASNRFSGVPDRFSGGGSGTDFTLKISRVEADDVGIYYCMQGLHPIT
notes: Human antibody from a naive scFv phage library; also called 항-MUC1 항체
The Kd is the constant that tells how readily two partners part at equilibrium. The low end stands for tighter binding, the high end for weaker binding. For the molecule B1, the Kd is 6.49 nM. That is a single-digit nanomolar value.
